In US20240123088A1 one finds in vivo reconstitution of tsdCas9, Western blot band intensity, mouse striatum co-transduced with AAV9 data, which are given here for one substance.

Some results are limits rather than exact numbers.

The experiment concerns the target RmaDnaB-SpdCas9C (Rhodothermus marinus DnaB C-intein fused to the C-terminal split SpdCas9, HA-tagged) (Rhodothermus marinus (C-intein); Streptococcus pyogenes (dCas9 half)) (UniProt Q99ZW2). Description: cell-based or functional assay.

As to “SpdCas9N-RmaDnaB (N-terminal split SpdCas9 fused to the Rhodothermus marinus DnaB N-intein, FLAG-tagged)”, the in vivo reconstitution of tsdCas9, Western blot band intensity, mouse striatum co-transduced with AAV9 was > 50%.
